Read-outs that look alike come from different tables or passages of the source.
What was measured:
Experiment in all cases: cell-based or functional assay
[1] = target: T1, full-length human Robo 4 (on cells) (human, UniProt Q8WZ75 28-1007)
T1 sequence: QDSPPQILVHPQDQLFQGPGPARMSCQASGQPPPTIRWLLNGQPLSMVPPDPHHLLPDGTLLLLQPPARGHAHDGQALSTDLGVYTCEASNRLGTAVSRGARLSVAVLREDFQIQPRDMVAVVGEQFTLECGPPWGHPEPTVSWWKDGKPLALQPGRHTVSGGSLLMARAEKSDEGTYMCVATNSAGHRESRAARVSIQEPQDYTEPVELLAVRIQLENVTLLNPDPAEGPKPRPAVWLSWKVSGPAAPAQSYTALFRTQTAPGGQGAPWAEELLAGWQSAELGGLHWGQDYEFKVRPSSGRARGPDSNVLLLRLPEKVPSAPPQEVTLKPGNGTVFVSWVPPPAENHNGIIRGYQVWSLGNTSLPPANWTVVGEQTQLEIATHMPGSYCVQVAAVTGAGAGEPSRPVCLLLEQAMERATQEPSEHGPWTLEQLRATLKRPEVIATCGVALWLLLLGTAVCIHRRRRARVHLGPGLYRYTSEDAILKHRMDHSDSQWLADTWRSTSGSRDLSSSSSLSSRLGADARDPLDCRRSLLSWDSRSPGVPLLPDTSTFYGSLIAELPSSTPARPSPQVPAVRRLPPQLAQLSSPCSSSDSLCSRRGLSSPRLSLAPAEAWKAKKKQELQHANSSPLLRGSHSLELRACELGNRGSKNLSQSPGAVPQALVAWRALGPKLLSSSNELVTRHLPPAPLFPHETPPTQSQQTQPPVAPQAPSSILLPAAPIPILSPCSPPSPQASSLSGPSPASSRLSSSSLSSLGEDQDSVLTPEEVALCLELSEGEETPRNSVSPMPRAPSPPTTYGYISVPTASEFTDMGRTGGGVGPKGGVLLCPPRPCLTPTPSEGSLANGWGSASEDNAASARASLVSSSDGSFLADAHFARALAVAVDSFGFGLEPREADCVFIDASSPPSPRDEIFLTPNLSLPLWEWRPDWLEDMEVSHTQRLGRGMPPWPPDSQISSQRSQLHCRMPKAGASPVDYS

[2] = target: T1, full-length human Robo 4 (on cells); remark: listed apart in the source
[3] = target: T1, full-length human Robo 4 (on cells); remark: listed apart in the source
[4] = target: T2, mouse Robo 4 on MS-1 mouse endothelial cells (mouse, UniProt Q8C310 28-1012)
T2 sequence: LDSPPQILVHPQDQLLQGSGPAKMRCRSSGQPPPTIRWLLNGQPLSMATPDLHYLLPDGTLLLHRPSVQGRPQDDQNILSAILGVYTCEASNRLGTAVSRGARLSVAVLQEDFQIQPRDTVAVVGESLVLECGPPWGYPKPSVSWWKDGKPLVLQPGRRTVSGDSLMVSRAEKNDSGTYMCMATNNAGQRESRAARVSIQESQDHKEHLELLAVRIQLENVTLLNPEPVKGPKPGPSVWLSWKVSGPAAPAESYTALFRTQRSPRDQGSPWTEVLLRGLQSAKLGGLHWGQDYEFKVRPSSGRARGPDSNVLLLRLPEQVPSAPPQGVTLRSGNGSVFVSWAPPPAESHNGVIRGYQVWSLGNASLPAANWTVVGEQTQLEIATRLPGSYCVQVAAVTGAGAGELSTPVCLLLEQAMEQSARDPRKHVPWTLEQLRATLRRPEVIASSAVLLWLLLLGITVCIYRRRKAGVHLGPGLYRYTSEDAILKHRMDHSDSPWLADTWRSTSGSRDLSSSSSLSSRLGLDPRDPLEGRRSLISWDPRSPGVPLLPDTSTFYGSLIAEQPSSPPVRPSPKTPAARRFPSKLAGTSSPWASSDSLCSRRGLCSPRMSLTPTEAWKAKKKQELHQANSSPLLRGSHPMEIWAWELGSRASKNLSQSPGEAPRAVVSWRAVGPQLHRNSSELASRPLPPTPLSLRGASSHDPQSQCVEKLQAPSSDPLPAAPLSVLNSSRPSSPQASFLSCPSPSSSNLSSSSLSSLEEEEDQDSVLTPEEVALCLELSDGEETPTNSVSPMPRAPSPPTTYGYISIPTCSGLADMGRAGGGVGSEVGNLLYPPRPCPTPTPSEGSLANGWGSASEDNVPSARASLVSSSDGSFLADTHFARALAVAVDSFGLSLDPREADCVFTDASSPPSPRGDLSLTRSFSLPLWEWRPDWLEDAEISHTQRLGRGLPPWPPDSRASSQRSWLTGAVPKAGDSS

B1: Molecule L, 2+1 Fab-Fab-CrossFab (VH/VL exchange in CD3 binder, CD3 binder V9, Robo 4 binders 01F05) (bispecific antibody)
chain 1: QVQLKQSGAELVKPGASVKISCKTSVYTFTYGYMHWVEQKPGQGLEWIGRIDPDSGNSMYNQKFQGRATLTRDKSSSTVYMELRSLTSEDSAVYYCARSMRYSGYRDYALDLWGQGTQVTVSSASTKGPSVFPLAPSSKSTSGGTAALGCLVKDYFPEPVTVSWNSGALTSGVHTFPAVLQSSGLYSLSSVVTVPSSSLGTQTYICNVNHKPSNTKVDKKVEPKSCDGGGGSGGGGSQVQLKQSGAELVKPGASVKISCKTSVYTFTYGYMHWVEQKPGQGLEWIGRIDPDSGNSMYNQKFQGRATLTRDKSSSTVYMELRSLTSEDSAVYYCARSMRYSGYRDYALDLWGQGTQVTVSSASTKGPSVFPLAPSSKSTSGGTAALGCLVKDYFPEPVTVSWNSGALTSGVHTFPAVLQSSGLYSLSSVVTVPSSSLGTQTYICNVNHKPSNTKVDKKVEPKSCDGGGGSGGGGSDIQMTQSPSSLSASVGDRVTITCRASQDIRNYLNWYQQKPGKAPKLLIYYTSRLESGVPSRFSGSGSGTDYTLTISSLQPEDFATYYCQQGNTLPWTFGQGTKVEIKSSASTKGPSVFPLAPSSKSTSGGTAALGCLVKDYFPEPVTVSWNSGALTSGVHTFPAVLQSSGLYSLSSVVTVPSSSLGTQTYICNVNHKPSNTKVDKKVEPKSC
chain 2: QLVLTQSPSASASLGASVKLTCTLSSQHSSYGITWLQQHPDKAPKYVMYLKSDGSHTKGADIPDRFSGSSSGVHRYLSISNVQPEDEAIYFCVTYDSTHVFGSGTQLTVLGQPKAAPSVTLFPPSSEELQANKATLVCLISDFYPGAVTVAWKADSSPVKAGVETTTPSKQSNNKYAASSYLSLTPEQWKSHRSYSCQVTHEGSTVEKTVAPTECS
chain 3: EVQLVESGGGLVQPGGSLRLSCAASGYSFTGYTMNWVRQAPGKGLEWVALINPYKGVSTYNQKFKDRFTISVDKSKNTAYLQMNSLRAEDTAVYYCARSGYYGDSDWYFDVWGQGTLVTVSSASVAAPSVFIFPPSDEQLKSGTASVVCLLNNFYPREAKVQWKVDNALQSGNSQESVTEQDSKDSTYSLSSTLTLSKADYEKHKVYACEVTHQGLSSPVTKSFNRGEC
B1 was tested, and the “EC50 of T-cell mediated killing of HUVECs (LDH release, human PBMCs, E:T 10:1), 24 h” value [1] was 372 pM and the “EC50 of T-cell mediated killing of HUVECs (LDH release, human PBMCs, E:T 10:1), 48 h” value [1] was 236 pM.

B2: Molecule H, 1+1 Fab-CrossFab (VH/VL exchange in CD3 binder, CD3 binder V9, Robo 4 binder 7G2) (bispecific antibody)
chain 1: not shown
chain 2: EIVLTQSPGTLSLSPGERATLSCRASQSVSSSYLAWYQQKPGQAPRLLIYGASSRATGIPDRFSGSGSGTDFTLTISRLEPEDFAVYYCQQGQLPPRTFGQGTKVEIKRTVAAPSVFIFPPSDEQLKSGTASVVCLLNNFYPREAKVQWKVDNALQSGNSQESVTEQDSKDSTYSLSSTLTLSKADYEKHKVYACEVTHQGLSSPVTKSFNRGEC
chain 3: EVQLVESGGGLVQPGGSLRLSCAASGYSFTGYTMNWVRQAPGKGLEWVALINPYKGVSTYNQKFKDRFTISVDKSKNTAYLQMNSLRAEDTAVYYCARSGYYGDSDWYFDVWGQGTLVTVSSASVAAPSVFIFPPSDEQLKSGTASVVCLLNNFYPREAKVQWKVDNALQSGNSQESVTEQDSKDSTYSLSSTLTLSKADYEKHKVYACEVTHQGLSSPVTKSFNRGEC
B2 was tested, and the “EC50 of T-cell mediated killing of HUVECs (LDH release, human pan T cells, E:T 5:1, 22 h)” value [2] was 2760 pM.

B3: Molecule A, 1+1 CrossFab-IgG (VH/VL exchange in CD3 binder, CD3 binder V9, Robo 4 binder 01F09) (bispecific antibody)
chain 1: not shown
chain 2: QPVLTQSPSASASLGASVKLTCTLNSQFSTYNIGWYQQHRDKPPKYVMFVKGDGGHSKADGIPDRFSGSSSGADRYLTISNIQAEDEAIYFCGADYNNAGQYGCVFGSGTHFTVLGQPKAAPSVTLFPPSSEELQANKATLVCLISDFYPGAVTVAWKADSSPVKAGVETTTPSKQSNNKYAASSYLSLTPEQWKSHRSYSCQVTHEGSTVEKTVAPTECS
chain 3: EVQLVESGGGLVQPGGSLRLSCAASGYSFTGYTMNWVRQAPGKGLEWVALINPYKGVSTYNQKFKDRFTISVDKSKNTAYLQMNSLRAEDTAVYYCARSGYYGDSDWYFDVWGQGTLVTVSSASVAAPSVFIFPPSDEQLKSGTASVVCLLNNFYPREAKVQWKVDNALQSGNSQESVTEQDSKDSTYSLSSTLTLSKADYEKHKVYACEVTHQGLSSPVTKSFNRGEC
chain 4: DKTHTCPPCPAPEAAGGPSVFLFPPKPKDTLMISRTPEVTCVVVDVSHEDPEVKFNWYVDGVEVHNAKTKPREEQYNSTYRVVSVLTVLHQDWLNGKEYKCKVSNKALGAPIEKTISKAKGQPREPQVCTLPPSRDELTKNQVSLSCAVKGFYPSDIAVEWESNGQPENNYKTTPPVLDSDGSFFLVSKLTVDKSRWQQGNVFSCSVMHEALHNHYTQKSLSLSPGK
With B3 the “EC50 of T-cell mediated killing of HUVECs (LDH release, human pan T cells, E:T 5:1, 22 h)” value [2] was 137 pM.

B4: Molecule M, 2+1 CrossFab-IgG, inverted, with charge modifications (VH/VL exchange in CD3 binder, charge modification in Robo 4 binders, CD3 binder of SEQ ID … (bispecific antibody)
chain 1: QVQLKQSGAELVKPGASVKISCKTSVYTFTYGYMHWVEQKPGQGLEWIGRIDPDSGNSMYNQKFQGRATLTRDKSSSTVYMELRSLTSEDSAVYYCARSMRYSGYRDYALDLWGQGTQVTVSSASTKGPSVFPLAPSSKSTSGGTAALGCLVEDYFPEPVTVSWNSGALTSGVHTFPAVLQSSGLYSLSSVVTVPSSSLGTQTYICNVNHKPSNTKVDEKVEPKSCDKTHTCPPCPAPEAAGGPSVFLFPPKPKDTLMISRTPEVTCVVVDVSHEDPEVKFNWYVDGVEVHNAKTKPREEQYNSTYRVVSVLTVLHQDWLNGKEYKCKVSNKALGAPIEKTISKAKGQPREPQVCTLPPSRDELTKNQVSLSCAVKGFYPSDIAVEWESNGQPENNYKTTPPVLDSDGSFFLVSKLTVDKSRWQQGNVFSCSVMHEALHNHYTQKSLSLSP
chain 2: not shown
chain 3: EVQLLESGGGLVQPGGSLRLSCAASGFTFSTYAMNWVRQAPGKGLEWVSRIRSKYNNYATYYADSVKGRFTISRDDSKNTLYLQMNSLRAEDTAVYYCVRHGNFGNSYVSWFAYWGQGTLVTVSSASVAAPSVFIFPPSDEQLKSGTASVVCLLNNFYPREAKVQWKVDNALQSGNSQESVTEQDSKDSTYSLSSTLTLSKADYEKHKVYACEVTHQGLSSPVTKSFNRGEC
chain 4: QLVLTQSPSASASLGASVKLTCTLSSQHSSYGITWLQQHPDKAPKYVMYLKSDGSHTKGADIPDRFSGSSSGVHRYLSISNVQPEDEAIYFCVTYDSTHVFGSGTQLTVLGQPKAAPSVTLFPPSSKKLQANKATLVCLISDFYPGAVTVAWKADSSPVKAGVETTTPSKQSNNKYAASSYLSLTPEQWKSHRSYSCQVTHEGSTVEKTVAPTECS
B4 was tested, and the “EC50 of T-cell mediated killing of HUVECs (LDH release, human PBMCs, E:T 10:1), 24 h” value [3] was 173 pM, the “EC50 of T-cell mediated killing of HUVECs (LDH release, human PBMCs, E:T 10:1), 48 h” value [3] was 125 pM and the “EC50 of T-cell mediated killing of MS-1 cells (LDH release, human PBMCs, E:T 10:1), 24 h” value [4] was 275 pM. The “EC50 of T-cell mediated killing of MS-1 cells (LDH release, human PBMCs, E:T 10:1), 48 h” value [4] was 119 pM.

B5: Molecule D, 1+1 CrossFab-IgG (VH/VL exchange in CD3 binder, CD3 binder V9, Robo 4 binder 7G2) (bispecific antibody)
chain 1: not shown
chain 2: EIVLTQSPGTLSLSPGERATLSCRASQSVSSSYLAWYQQKPGQAPRLLIYGASSRATGIPDRFSGSGSGTDFTLTISRLEPEDFAVYYCQQGQLPPRTFGQGTKVEIKRTVAAPSVFIFPPSDEQLKSGTASVVCLLNNFYPREAKVQWKVDNALQSGNSQESVTEQDSKDSTYSLSSTLTLSKADYEKHKVYACEVTHQGLSSPVTKSFNRGEC
chain 3: EVQLVESGGGLVQPGGSLRLSCAASGYSFTGYTMNWVRQAPGKGLEWVALINPYKGVSTYNQKFKDRFTISVDKSKNTAYLQMNSLRAEDTAVYYCARSGYYGDSDWYFDVWGQGTLVTVSSASVAAPSVFIFPPSDEQLKSGTASVVCLLNNFYPREAKVQWKVDNALQSGNSQESVTEQDSKDSTYSLSSTLTLSKADYEKHKVYACEVTHQGLSSPVTKSFNRGEC
chain 4: DKTHTCPPCPAPEAAGGPSVFLFPPKPKDTLMISRTPEVTCVVVDVSHEDPEVKFNWYVDGVEVHNAKTKPREEQYNSTYRVVSVLTVLHQDWLNGKEYKCKVSNKALGAPIEKTISKAKGQPREPQVCTLPPSRDELTKNQVSLSCAVKGFYPSDIAVEWESNGQPENNYKTTPPVLDSDGSFFLVSKLTVDKSRWQQGNVFSCSVMHEALHNHYTQKSLSLSPGK
B5 was tested, and the “EC50 of T-cell mediated killing of HUVECs (LDH release, human pan T cells, E:T 5:1, 22 h)” value [2] was 3140 pM.
